Laboratory results published in the DeepSol protein solubility set.

Test: soluble on expression in E. coli; label from the status in PepcDB or PDB records

Sequence	soluble on expression in E. coli
MAHHHHHHMVSAPQIRSIPCGSGDFSVMKRSLIARWQSGVHTPHGVVYRGAKMKNWPEQRIPENFKFTEEQRFRTKAIPRDVGTIPRNFVLGVLYRHQPCEVGGLWEHCTNDPEIVLDSKRHLREVLKQAREEGFVTFERDAISNEWLCFLTRERYEEVQRIVTAKSEAVDAHSGLRGAAATETSTYAEKFREMNVEAKEAHARRLEEEVANTTRYLRRFQQREIDYLPYTDLNGKVNFMWWYETRDVQQRADEVLTDSSSSKALAGEEEHKAGSQLEATTASTS	soluble
GKSASMAVEEIASRKDISLRDMQISAILKMLFLNKDLNNNDNITTITDDIFNQQEIIWKVLILDIKSTATISSVLRVNDLLKAGITVHSLIKQDRSPLPDVPAIYFVSPTKENIDIIVNDLKSDKYSEFYINFTSSLPRNLLEDLAQQVSITGKSDKIKQVYDQYLDFIVTEPELFSLEISNAYLTLNDPKTTEEEITGLCANIADGLFNTVLTINSIPIIRAAKGGPAEIIAEKLGTKLRDFVINTNSSSTSTLQGNDSLERGVLIILDRNIDFASMFSHSWIYQCMVFDIFKLSRNTVTIPLESKENGTDNTTAKPLATKKYDIEPNDFFWMENSHLPFPEAAENVEAALNTYKEEAAEITRKTGVTNISDLDPNSNNDTVQIQEVVKKLPELTAKKNTIDTHMNIFAALLSQLESKSLDTFFEVEQDPGSTKTRSRFLDILKDGKTNNLEDKLRSFIVLYLTSTTGLPKDFVQNVENYFKENDYDINALKYVYKLREFMQLSNMSLQNKSLEDGSDSAFKPSNLTLSGIYGLTEGKLQGGVGSLISGIKKLLPEKKTIPITNVVDAIMDPLNSSQKNLETTDSYLYIDPKITRGSHTRKPKRQSYNKSLVFVVGGGNYLEYQNLQEWAHSQLHNPKKVMYGSTAITTPAEFLNEISRLGASNSSNNDA	soluble
SESICNSLNSKLEPTLENLENLDVSAFQAPEDLLDGCRIYLCGFSGRKLDKLRRLINSGGGVRFNQLNEDVTHVIVGDYDDELKQFWNKSAHRPHVVGAKWLLECFSKGYMLSEEPYIH	soluble
MFADRLFNAMERNEPAPGMVLVAAPSMESEDFARSVILIIEHSEYATFGVNLASRSDVAVFNVIPEWVPCVTKPQALYIGGPLNQQSVVGVGVTAQGVDAARVDNLTRLANRLVMVNLGADPEEIKPLVSGMRLFAGHAEWAPGQLAQEIENGDWFVAPALPSDVTAPGSVDVWGDVMRRQPMPLPLYSTFPVNVVGENLEHHHHHH	soluble
MGSDKIHHHHHHMSATKIDAVYLDADVTAYKGNPFIEALPPLQESVNSAAALRSTSLFDASDLQKPRVVRAHSICRITNDFFQPLGSHMLLSERVSLMIRGGYVGRNPKTGDLQRHLQNGYERVQSGDLSSFRFEEAKSTAQSMLLIGCSGSGKTTSLARILDTYPQVIYHPTMNFEQVVYLKVDCSHNGSLKEICLNFFRALDKALGSNYEKKYGLKRNGIETMLALMAQIANAHAVGLLVIDEIQHLSRAKSGGPEAMLNFFVTMVNTIGVPVMLIGTPKAREIFEIDLRSARRGSGLGAIFWEPMKQGPNGKRNPEWAAFTDNLWKQQLLQSKDLVLTDDLRDLWYDLSQGVMDTVVKLFVLSQLRALALGKERLTPGLMKQVYKDELKPVHPMLEALRSGVPEKIAQYSDLMLPEMDKRLIQLQRDIAGMKVETPEELALKQLATDDERRIYLMLKDDYDSSLLVATVRKAFAENPKLTRPQLLPVILNWLSDTDNPVKPEQPKTQVKNTKPDQWDTLDWDDLRYISSQQQSAAAMHSALGTKGLLFDLRRRMT	not soluble
MTPIEAKFARLSTDHAPDQEVRQGNAGLDGLLRGDTLPGTPVDFSHGDVNTSAFAPTPGSLQEFVQGVERGGEQAYTEYRGAADLRLRVAAHLAEFTGAPVDGANELIITPGTQGALFLAIASSVTAGDKVAIVRPDYFANRKLVEFLGDEIVPVDMRHLERDSGAGLDLDQLEAAFKAGVRTFLFSNPNNPAGVVYSPEEIAQIADLARHYDATVIVDQLYSRLLYTGTRYTHLRALPQAPANVITIMGPSKTESLSGYRLGVAFGAAHLIDRMEKLQAIVSLRAPGYCQAVLRTWFQEPAGWMNERIAQHQAIRDDLIRVLRAVPGLAVRAPEAGSYLFPRLPRLAVGLHDFVRILRTQAGVTVTPGTEFSPHADDSIRLNFSQNHAAAVQAIERTAQLIERYRA	not soluble
MSEEPAAKRMKNADEFPNLRSEVAGPVKEKLIELDAIQHQLDVMSENAAEEVLKVEQIFNQKRLPIYEKRKKLTTKIDNFWQTAFLNHHLLSTAIPEEQEDLLAALRDLEVQEFEDLRSGFKIIMTFDPNEYFTNEVITKSYHLQSESPSTEITEIEWKENKKPPFKPEDGDSAHTFLEWLTYAALPDSDEIAEVIKDDLYVNPLQYYVMPDMQEVEEDDIEDFLNEERGVDENGQRIPRRNISDSLKVDQDESADGQEGEDEEEEDMGEEEEDGVEEEAEGEEEEEDGAIEEEGGDENVEAHVAVNPENTAE	soluble
MNDYTQQLQGKKDYLKTLFAGLDVPEWEVYESPDKHYRMRAEFRIWHEGGEMFYAMFEKGQKASGASMIRCDRFEAASEAVNRLMPELIAAAAQSPELKKRWYAVEFLSTLSGEMLVTMIYHKRLDAEWMQAAQALQQQLDISVIGRSRGQKIVLKQDYVTETLKVGNRDFRYRQIEGS	not soluble
MSLGFAGDGKTYTASELAIGLVMLMRQRGIEAGNRPVMFLDTETGSDWVKPRFDAENIELFTAKTRSFVDLLEAINEAESSGSVMIIDSISHFWTGLCDEYARRRNRKRGLEFSDWAWLKQEWRRFTDRFVNSQAHIIMCGRAGYEYDFFEGDDGKRQLAKTGIKMKAETETGYEPSIRIQMEKQMNIETGQVWRTARILKDRSTRIDGQVFSNPTFKNFLPHIESLNLGGEHPGIDTSRDNSELFANDGTPTWLKEKRAKEIALDEIIELLNKHHGGTSNDAKRAKADLLEKTFTSRSWERIKGMDWPTIKAGRNALWIELEGVEYAFPDEGHHHHHH	soluble
MAELKALQNGSDIRGIALDTEEQTATLTATAVAEIAVGVVRWLQDKKQLPRKAQQRLTIAIGHDSRLTAEPIKQALVDTFLSLGIQVIDVGLATTPAMFMATQFPTLQCDAAIMITASHLPYYFNGLKFFTAEGGAEKEDIRYILSHTDPLTANENGTLMKQELLPIYAEHLVEKIRQGIHSPEEKPLQGFRIIVDAGNGAGGFFAEQVLQVLGADTTGSQFLEPDGHFPNHVPNPDNSEAMKSIQTAVLANQADLGIIFDTDVDRSAVVDQSGEVLNRNNLIAVLAAIVLKEAPGSYIVTNSPTSSHLKTFIEEKGGQQIRYISGYRNVINKMIELNHGGFQTPLAIETSGHAAFQENYNLDDGAYVVAKILMLLPELKQNNQTLGDLIATLKQPAETNEFRFKITAEDVTCYGQQVLRDFELFVENQADFAVDRENQEGVRGNVSGQYGSGWFLLRLSLHEPLLVLQVENDQSDKNACVIEKIATFLQKYEEIDSQQIEK	not soluble
MKKILVLGGAHIDRRGMIETETAPGASNPGSWMEEAGGGGFNAARNLSRLGFEVRIIAPRGGDVTGEVVAEAARQAGVEDTPFTFLDRRTPSYTAILERDGNLVIALADMDLYKLFTPRRLKVRAVREAIIASDFLLCDANLPEDTLTALGLIARACEKPLAAIAISPAKAVKLKAALGDIDILFMNEAEARALTGETAENVRDWPNILRKAGLSGGVVTRGASEVVAFNGTEKAILHPPLIREVKDVTGAGDAMASGYLAAIAEGKTIREALRQGAAAAAITVQSSFATSQDLSKDSVEAMLGLVPQAEMLA	soluble
MSLEPDELFDIEMRLLLHGVRQVYGHDFTDYSEASIKRRITQWFATSGYGTLSEAQAAILRNREAFDSLLRGITVNVSEMFRDPAFFRALREEIVPHLKTYPFVKIWHAGCSSGEEAYSLAILLEEEGMKGRFRMYATDINNEVLQNAREGIFPLKEMQKYTRNYQAAGGKGAFSDYYLARYEHAIMIQSLRDQIVFASHNLAVDADFGEMHLILCRNVLIYFKPTLKERVLRLFDTCLIPGGFLCLGLKESLDGRRIASRYAETVERMRIYRKSYGQEQSEGHHHHHH	not soluble
MKQLNFKKIFLNLLWPLLPFTAQAQENNTLYSILSKDNILVSSPSVQNQEEDIVTQMPNRHHKYDKRVHRYRRAWEALIPTHTKLQYAGGMGLLSWGIGWDYGKRGQWETDLLLGFIPRYSSKHFKMTMTLKQNYIPWSIWLGKDFSLEPLTTGIYFNTVFSDDFWTSEPERYPRGYYGFSTRIRTHIFLGQRVRFDVPEKYRKFSKSITAFYEISTCDLYVVSAFNNSYLKPDDYLRLSFGLKFQIF	not soluble
